Test system: inflammatory disease, immunological disease and/or autoimmunological disease
Test: Treatment of patients: condition as stated by patient and physician (pain, fatigue, daily life, duration of effect, relapses)
Type: in vivo, human
Settings: Patient 11, ankylosing spondylitis; within half a year the biologics lost their effect
Protocol: All patients treated in the following Inventive Examples, Reference Examples and Comparative Examples were selected solely based on their diagnosis without performing a preselection in view of other parameters.
Annotation to the Tables 8A and B and 9 to 10: Patients were usually examined and treated in the same session. The success of the treatment or the effect thereof was then determined in the following session, usually one week later, and the next treatment performed as indicated in the tables.

B1: Cimzia®: biologic, certolizumab pegol (antibody, chains of the INN, looked up, V domains shown)
VH: EVQLVESGGGLVQPGGSLRLSCAASGYVFTDYGMNWVRQAPGKGLEWMGWINTYIGEPIYADSVKGRFTFSLDTSKSTAYLQMNSLRAEDTAVYYCARGYRSYAMDYWGQGTLVTVSS
VL: DIQMTQSPSSLSASVGDRVTITCKASQNVGTNVAWYQQKPGKAPKALIYSASFLYSGVPYRFSGSGSGTDFTLTISSLQPEDFATYYCQQYNIYPLTFGQGTKVEIK
modifications: Fab' PEG (pegol)
effect of earlier treatment with biologics (patient's report): had little effect from the outset

Reference: patent US20240228570A9, “PLATFORM TECHNOLOGY FOR TREATMENT OF INFLAMMATORY, IMMUNOLOGICAL AND/OR AUTOIMMUNOLOGICAL DISEASES” (ellennbe GmbH, priority 2021, published 2024)
